50 sequences from the domain aggregation screens of Martell et al. (2025) can be followed below.

The series in a line: soluble fraction after stress (log2 fold change); higher = more stays soluble; pooled small domains, quantitative proteomics. As to conditions: stress: pH 4. The procedure, abridged:
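Pooled custom libraries of small protein domains were subjected to pH 4 and measured by high-throughput quantitative proteomics. The log2 fold change in soluble amount per domain is reported, higher values meaning more remained soluble. This is used as a measure of aggregation propensity.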
For “HMQISSSEVLEKVVDEILSANPKSIEDYKNGKLQAAGFLMGQVMKATKGQANPAVAKELIEAKLKD”, the “soluble fraction (log2)” value was 0.124.
Under “HMQISYDVPNLIGKSYEEVMTDPSILGEHFTVVLGETKTDEDTDAGVILHQDPAADSKVQDEVTPITVTVS” stands 0.0589; under “HMQITDTEAIATTLDEIIAANPKEWERLKAGQEQLVKFFVGQVMRVTKGRANPQVVNDLLKERL”, 0.186.
As for “HMQITNEGQIKLVISEVLNENQEQKKQYLSGKEQVLGYLIGKVMQKTKGKANPKLVNDLMIKELS”, the figure is 0.217; as for “HMQITSTDEIEKMIDELIAANPEQTKQYQNGNHKVAGWFVGQMMKASKGKANPQMVNNLLQKKL”, 0.166; as for “HMQITTVSPKNYAEAELIGQRFREGNPVVMDLSKLDSDLGQRLVDFASGLVFALNGTVERIAKKVFLLSP”, -0.748.
For the sequence “HMQIVHKHLQLQPDQGALRAALYSHKAVVAEQVNEQGAINLEIKLAESDFLRLLKSSGLKLQDLVSLS”, the “soluble fraction (log2)” value was -1.16.
On to “HMQKAQEYILVDIKGEVQTPGVYKLPVNSRVIDAIEASGGLTKKAVTTYINLSKTLKDENVIIINKKSEL”, for which the “soluble fraction (log2)” value was -0.0717.
Turning to “HMQKITPDNWTYIRSLIRQKWSPDQIDQWLKKHPDVGFTVSRETIYQYVKEDRQKDGDLYLSLRRAGKSY”, the “soluble fraction (log2)” value was -1.11.
Under “HMQKLKINKYKDPKGEIRYYIASTIRNGNKSSTHNLLSLGKHSDLLKEHSDVEAYLKERLNEAMESGI” stands 0.307; under “HMQKPDIEVDFAEGDMVVVTGGAWKDTAGVITGINMQKQTVTINVELFGRETPVEISFTEIKKA”, -0.799; under “HMQKVPDAFKAEQVQTLITRLGVSRAELARTLDVSLSTVNKWASGAVEPKGSALVLLKVLWMHGFKAL”, 0.03.
Regarding “HMQLDDDQKEELILKLIDSLDTTKKGAPLTELAREAAKSNIGESELEEITTSLLDKGLVYEPTIGKMKR”, the “soluble fraction (log2)” value was 0.0111.
As for “HMQLDLNENEKIIFEILQNNKTMQLSNLKTQTELSNKGWDKAIKSLTKQGLAKVSKIDNELIVEFL”, the figure is -0.723; as for “HMQLKFTDLRKEILRMIWEGHGPQKAYDLLNKLQQTNPSAKPATVYRALDFLIGNGFIHKVASLNAFVG”, -0.942.
Under “HMQLKKDTILSYIEEKLIDSYNSNKGFTTQEISVALNMQRTNVSAILNNLVKENKLVKTKGKPVRYFLSG” stands -1.02.
Under “HMQLTPAQHAILAHALEHSDGKIVWFPDNIKGGARKKVLDGLLNRALITTDGTDWFVAAEGYDAMGR” stands 0.063.
On to “HMQLTVAVLIKNISKGQVISQGFLGFEARPERQIRGAYTNISEVLGRKAKSNIAVGTILKARHLDT”, for which the “soluble fraction (log2)” value was -0.49.
Under “HMQNAMQKELIDAFQKAYPDLDITKIELVYGTYYEVEAMNSTTEFTYRYDQNSKTFILAEQDNADP” stands -0.0395; under “HMQNELAEARSQLAERKNIDQAKLILMKKRNISEPEAYKLLRSHAMQTNRRVAEVAESIITAESLLG”, 0.0831.
Under “HMQNGNLVDVYLNWRGKYYAIKMFFPNSKMPRRSDVQDQIVKVYPDARVQSFQVSKYVPGQPFL” stands -0.431.
Turning to “HMQNLSELAYVNLRDALMQGQMKPGEELPLRPISRSFGISATPMREALLRLVTESALEMDSRGRISVP”, the “soluble fraction (log2)” value was -0.183.
As for “HMQNPYDTLGVSRDSTDAEIKKAYRKLAMEHHPDKGGDSQRFAEINNAYDNIKDMSSRQNFENDPSNFQ”, the figure is 0.186; as for “HMQNVFARKNLTSVSVDKLGEEEILLFKQSFESKNLTSSEALRDLSKKGMSEAELRKLKVRLTQL”, -0.177.
Under “HMQNWFADPKFEMFEDYGDAQSFYDTETKNIYVVMAEYGQKGSNTIQEITPDSEEYIPNYEKYKEYMENK” stands -1.42; under “HMQNYLEFIGNELKALTSIPSPSGYTKDVAAYLMKTLSDMGYEPQLSNKGNVFVTIGGEGNPLVLAAHVD”, -0.436; under “HMQNYLEVLRLHELGMGQRKIAQQVHTSRDTIRKIIAIAENQGLNYSNLIGKTDNELSKVFG”, 0.0958.
“HMQPAGEGAILRYLSSGAVKGIGPVMAREIVRRFGTDTFRVMEQEPEKLLKVKGITEQRLQTIMESYQD”: the “soluble fraction (log2)” value is 0.145.
Consider “HMQPDPAFVAWVDANPWYKENRTLRALVHDYAEEVKRQEPALIGTAFLDRVKQLVQSEHPELFD”, for which the “soluble fraction (log2)” value was -0.502.
Turning to “HMQPETIEDATNLYLEAARATLQLIEQNNVIARDVKRLLEHLDNDMARIETLLAEMLSRRDHWLRHIH”, the “soluble fraction (log2)” value was found to be 0.185.
As for “HMQPIQPNQAKYLDGLSSKYKGKGNHSQAAQLTALRDALNAGDHAKAREIYDKLDYEPQAEAAH”, the figure is 0.105; as for “HMQPNVTRERILAAAMTVFAQKGWQKTSLDEVAAAAGMTKGAIYWHFRNKNDLFFALLDARLQRD”, -1.08; as for “HMQQAVTMQKPGRLLRNADGNGGAVRDLDVGMMLYPTGNRSELMWEVDDELGNRGWVNSTLFGLS”, -0.585.
For the sequence “HMQQDGSSSLGENMLNQELQARGVVPSEIPQEVWERVIQEAGKKSKREIYADIGLGRSLAAGFAQRLAA”, the “soluble fraction (log2)” value is -0.0576.
As for “HMQQDVLKLKSGGNYKGEYINIESAYVLFKPEGGNATQRIKVNEIQMLKLADGTEVIFGGRVK”, the figure is 0.297.
Under “HMQQEPNFYIVDGNTNQIVDRYYAPDSNVAHQYLGQWRQQHDPQETGNYRYGRLSSETEERYRNLAA” stands 0.188; under “HMQQFGANVRLIRKARQMSIKQLSELSGVSQTMISEVERGLKIPTIDVAGKIAAALGIDLTNLMG”, 0.0733.
On to “HMQQIQILPDGKIKLPDLSGTNMREAIEILHKGGLRMKPYGSGNAYQQKPAAGETVASGTTVEVLSL”, for which the “soluble fraction (log2)” value was found to be 0.0974.
As for “HMQQLAEQIPTDRPYISIAEAVVLFGISRDTIYRQIRKGNIPAVNLGERLTRISRIHIEAMFPKV”, the figure is -0.282; as for “HMQQNYREMHKVKKGETLFGIARRYEITVDQLIKANPDMNAVGYELKKGDYIFIPYPDGQKP”, -0.116.
As for “HMQRAEQLPAELAAVFRAETEAWGFFERQPPGYQRVAIHWVASAKQEATRLRRLAKLIEESAAGRR”, the figure is -1.43; as for “HMQRDTIAISAIPTAIKTYLSSTYPTDTLVHAFVNKDQSIVVISKNIDFYATSFSTANAFIKRIQLPA”, 0.156.
As for “HMQRFIHITVSDVHQATRLLEEEMQLTNYSVAENNAIKIFEFTYEPQEINHLFGKNGIEVSSLFIGS”, the “soluble fraction (log2)” value was -0.345.
As for “HMQRNLILKLDTDQPEIYKKLESIFVEINGLLVPFFIEKIIWSKQDSLNILFKNSSEALVEQLIGKNVFLP”, the figure is 0.0162; as for “HMQRSVNYSELHEIKERVFDALYSSPMSMPDLLAWLKGDEEHTISVIRLMQDNGDIEMGEDGRLAVV”, -0.629; as for “HMQSISLEEAKSAALDDAQLGIDEVEFLKTERNTDGDTSYYDIQFLVNGTIYKYQINTETGAILHVDYEA”, -0.511.
Under “HMQSITAGDKVRVKNYTVSGGKKRGKVYGGAGTFVVYYEKYDVISVTGDRVVIGIGKAVTAAVHIDDLEK” stands -0.932; under “HMQSKSEINELPKSIHMAFSPKNFELFIDNLKINEIDFSNWKGELNTIQERVDGQRQIWIQDPQGYWIEIN”, -0.335; under “HMQSLIVPVPKPEDDPVYKDGIKQDPVEVVSIWLGRDYLNMILNLKVSTGKGHTFGIVEDVS”, -0.383.
As for “HMQSNDTAEIEAVVKEIMAANERVVNDYRSGNTKVVSFFVGQVMKATKGKANPKVVNEVLAKLLK”, the figure is 0.169.
